{"source": "paper PMC12985673", "about": "“Weaker neuroligin 2–neurexin β1 interaction tethers membranes and recruits gephyrin at membrane junctions through clustering” (Science Advances, 2026)", "target": "the molecule itself", "assay": "cryo-EM structure; full-length NL2 alone; 20 mM Hepes-Na pH 7.5, 150 mM NaCl, 1 mM MgCl2, 0.5 mM CaCl2, 0.06% digitonin, brain polar lipid extract; only the ECD resolved", "data": [{"protein": "full-length neuroligin 2 (NL2), mouse, without the splice insert at site A (receptor, UniProt Q69ZK9 15-836, looked up, N-glycans, Neuroligin 2, mouse, amplified from pNICE-NL2(−); lacks the splice insert at site A (missing G153-T169 in UniProt Q69ZK9); its own signal peptide was replaced with that of NL1 followed by an HA tag; PreScission site before the C-terminal EGFP; S1A; also called NL2 WT; wild-type NL2; source: HEK293T, BacMam virus, purified (GFP-nanobody resin, eluted by PPX digestion, SEC); not shown: EGFP, …) QRGGGGPGGGAPGGPGLGLGSLGEERFPVVNTAYGRVRGVRRELNNEILGPVVQFLGVPYATPPLGARRFQPPEAPASWPGVRNATTLPPACPQNLHGALPAIMLPVWFTDNLEAAATYVQNQSEDCLYLNLYVPTEDDIRDSGKKPVMLFLHGGSYMEGTGNMFDGSVLAAYGNVIVVTLNYRLGVLGFLSTGDQAAKGNYGLLDQIQALRWLSENIAHFGGDPERITIFGSGAGASCVNLLILSHHSEGLFQKAIAQSGTAISSWSVNYQPLKYTRLLAAKVGCDREDSTEAVECLRRKSSRELVDQDVQPARYHIAFGPVVDGDVVPDDPEILMQQGEFLNYDMLIGVNQGEGLKFVEDSAESEDGVSASAFDFTVSNFVDNLYGYPEGKDVLRETIKFMYTDWADRDNGEMRRKTLLALFTDHQWVAPAVATAKLHADYQSPVYFYTFYHHCQAEGRPEWADAAHGDELPYVFGVPMVGATDLFPCNFSKNDVMLSAVVMTYWTNFAKTGDPNQPVPQDTKFIHTKPNRFEEVVWSKFNSKEKQYLHIGLKPRVRDNYRANKVAFWLELVPHLHNLHTELFTTTTRLPPYATRWPPRTPGPGTSGTRRPPPPATLPPESDIDLGPRAYDRFPGDSRDYSTELSVTVAVGASLLFLNILAFAALYYKRDRRQELRCRRLSPPGGSGSGVPGGGPLLPTAGRELPPEEELVSLQLKRGGGVGADPAEALRPACPPDYTLALRRAPDDVPLLAPGALTLLPSGLGPPPPPPPPSLHPFGPFPPPPPTATSHNNTLPHPHSTTRV", "values": [{"measurement": "stoichiometry N", "result": 2}]}]}
